Measurements reported in patent US6462254.

Target: angiostatin-FLAG-HA (pMB281.1)
Experiment: ECL sandwich assay on 293 cell lysate, biotinylated anti-FLAG M2 capture

ECL signal above background (fold above background): > 2
Substance: anti-FLAG M2 monoclonal antibody (IBI/Kodak)
